Values quoted from earlier work in PMC7101271.

Target: Rab7 (UniProt P51149)
Chain of UniProt P51149 (P51149 2-207): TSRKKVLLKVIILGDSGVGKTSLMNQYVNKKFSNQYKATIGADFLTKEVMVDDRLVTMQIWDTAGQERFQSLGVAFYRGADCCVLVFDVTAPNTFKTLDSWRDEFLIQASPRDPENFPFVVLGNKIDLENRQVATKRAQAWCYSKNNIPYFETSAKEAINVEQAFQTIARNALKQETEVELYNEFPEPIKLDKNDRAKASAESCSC

Kd: > 50 µM
Substance: GDI (from UniProt P21856)
